# Results from PMC9667838 (Cell Discovery, 2022).
# B1: Full-length human Flag-tagged SIT1 (SLC6A20) (natural protein)
# chain: MEKARPLWANSLQFVFACISYAVGLGNVWRFPYLCQMYGGGSFLVPYIIMLIVEGMPLLYLELAVGQRMRQGSIGAWRTISPYLSGVGVASVVVSFFLSMYYNVINAWAFWYLFHSFQDPLPWSVCPLNGNHTGYDEECEKASSTQYFWYRKTLNISPSLQENGGVQWEPALCLLLAWLVVYLCILRGTESTGKVVYFTASLPYCVLIIYLIRGLTLHGATNGLMYMFTPKIEQLANPKAWINAATQIFFSLGLGFGSLIAFASYNEPSNNCQKHAIIVSLINSFTSIFASIVTFSIYGFKATFNYENCLKKVSLLLTNTFDLEDGFLTASNLEQVKGYLASAYPSKYSEMFPQIKNCSLESELDTAVQGTGLAFIVYTEAIKNMEVSQLWSVLYFFMLLMLGIGSMLGNTAAILTPLTDSKIISSHLPKEAISGLVCLVNCAIGMVFTMEAGNYWFDIFNDYAATLSLLLIVLVETIAVCYVYGLRRFESDLKAMTGRAVSWYWKVMWAGVSPLLIVSLFVFYLSDYILTGTLKYQAWDASQGQLVTKDYPAYALAVIGLLVASSTMCIPLAALGTFVQRRLKRGDADPVA
# Biological target: T1, Full-length human His-tagged angiotensin-converting enzyme 2 (ACE2) (human, UniProt Q9BYF1)
# T1 construct: also called hACE2
# T1 sequence (Q9BYF1 18-805): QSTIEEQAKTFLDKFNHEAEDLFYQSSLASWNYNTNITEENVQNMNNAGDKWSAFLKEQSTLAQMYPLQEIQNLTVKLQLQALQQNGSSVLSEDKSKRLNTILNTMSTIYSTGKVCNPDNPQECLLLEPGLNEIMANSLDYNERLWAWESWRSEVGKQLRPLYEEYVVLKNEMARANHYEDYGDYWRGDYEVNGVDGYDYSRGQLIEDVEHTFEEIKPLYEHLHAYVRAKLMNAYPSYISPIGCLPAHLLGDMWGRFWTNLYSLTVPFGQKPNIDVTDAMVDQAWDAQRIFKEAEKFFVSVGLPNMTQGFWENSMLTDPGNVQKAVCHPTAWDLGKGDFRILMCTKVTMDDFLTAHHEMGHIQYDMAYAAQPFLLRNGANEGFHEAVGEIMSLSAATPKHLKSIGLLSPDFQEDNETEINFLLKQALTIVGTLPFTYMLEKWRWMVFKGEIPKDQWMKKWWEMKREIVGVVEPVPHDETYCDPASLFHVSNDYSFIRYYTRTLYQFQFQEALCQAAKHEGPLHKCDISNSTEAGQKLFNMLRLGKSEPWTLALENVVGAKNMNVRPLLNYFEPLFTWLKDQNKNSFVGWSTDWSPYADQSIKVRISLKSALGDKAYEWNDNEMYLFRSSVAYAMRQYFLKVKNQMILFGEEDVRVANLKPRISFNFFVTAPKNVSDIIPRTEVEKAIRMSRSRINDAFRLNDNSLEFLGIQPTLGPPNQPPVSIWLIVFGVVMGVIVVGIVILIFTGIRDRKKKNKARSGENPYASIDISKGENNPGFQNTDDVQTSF
# Assay: cryo-EM structure
# Conditions: both partners purified
binder,measurement,value
B1,binding result,binds
